Assays:
[1] = target: T1, human Jagged-1 DSL-EGF3 fragment (J-1_(DSL-EGF3)), His-tagged, wild type (human, UniProt P78504 187-335); test: pull-down
[2] = target: T1, human Jagged-1 DSL-EGF3 fragment …; test: SPR

T1 sequence (P78504 187-335): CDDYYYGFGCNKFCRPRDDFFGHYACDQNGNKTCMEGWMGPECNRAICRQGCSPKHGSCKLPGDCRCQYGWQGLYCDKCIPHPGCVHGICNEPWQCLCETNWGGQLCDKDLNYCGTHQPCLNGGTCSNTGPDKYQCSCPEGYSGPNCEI

binding result [1]	binding result [2]	Binder
binds	–	human Notch-1 EGF domains 11-13 (N-1_(11-13)) with C-terminal BirA-tag, biotinylated (domain or fragment, biotin on the C-terminal tag) QDVDECSLGANPCEHAGKCINTLGSFECQCLQGYTGPRCEIDVNECVSNPCQNDATCLDQIGEFQCICMPGYEGVHCEVNTDECASSPCLHNGRCLDKINEFQCECPTGFTGHLCQ
–	binds	human Notch-1 EGF domains 11-13 (N-1_(11-13)) without the BirA-tag (domain or fragment) QDVDECSLGANPCEHAGKCINTLGSFECQCLQGYTGPRCEIDVNECVSNPCQNDATCLDQIGEFQCICMPGYEGVHCEVNTDECASSPCLHNGRCLDKINEFQCECPTGFTGHLCQ

Source: paper PMC2669539 (Nature structural & molecular biology, 2008)
